From the domain aggregation screens of Martell et al. (2025)

Experiment: soluble fraction after stress (log2 fold change); higher = more stays soluble; pooled small domains, quantitative proteomics
Settings: stress: pH 4
Outline: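 Aggregation propensity is read out as the fold change in how much of each domain remains soluble after acid stress. The custom small-domain libraries were pooled, held at pH 4 and analysed with high-throughput quantitative proteomics. On the log2 scale used, higher values mean more of the domain stayed soluble.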

Row | Sequence | soluble fraction (log2)
1 | HMPMIQHFHRMISAALGISEKQIVQTLGLLNDGATIPFISRYRKEVTGGLDEVQIESIKTHYEKLNEIAK | -0.999
2 | HMPMPQDEVSYALGLSIGQNFKASGIKAITSEDFIAGLQDALAEREPQMTTERAREVINQLFMRLQQEESE | -0.784
3 | HMPMTDYQLIRSNRRTIALQITRDARVVVRAPLYASEADIRRFVESHRAWIESHLDRQRARTD | 0.201
4 | HMPMTRILFLPDDRTILQFDSAEPAEDLVSAVNAGRWLPPEPYRSGFGLGLPENRLRASRQGALVVVMLS | -1.19
5 | HMPNDYRKKLEILAKEKGAEYLHTMLTEVDPKSALQIHTNNIKRTIRALEFYHQTGMKISEHNEAEREK | 0.0478
6 | HMPNIHVVFAEEWTDRRLDKVLSEYFDGYSRSFIKKLFDDGLILVNSKAVKPSYKVRAGDMIDISVPDPV | -0.465
7 | HMPNPALESARPAFEAFLSRFSDGEAMRGPAWGLWSLLHRKGNAPTASHAAGRDGMGVLAFLRHWQWG | -0.551
8 | HMPPDLSEAIQKRIEGKTDEALEILRKLYNEYPESTEIITMLGRTLLDAEEYALAAFRLEQALDLGG | -1.22
9 | HMPPDVIENIFKNDANKIIDLYNMAPRGQKETIVEMIKNKRLQGINVDANVLVKLGELTGIDFVN | -1.37
10 | HMPPLVLRGVVMGADGARLAILAQGEAGAALGIGETWKEYTLRSVTDQSATLEHRSGTITLTR | -0.437
11 | HMPPNPELGKKLLKLRKEFKMTQDDVANILGMSRTSFSKYENGIANPPLQVMRKLASIYNVGLEYLI | -0.0729
12 | HMPQEMIEILATPNGWLRVRQGPGTNYPEITKVNSGEEFPLLEEKDSWFKIRIEEGQEGWISSQYAQKEE | -0.0319
13 | HMPQGFEDLTEREREVLTLIAEGRTNQEIADALVISIKTVNRHRENIMAKLNLHSRVELVRYAIAQGLI | -0.723
14 | HMPQNLQDQLFELILSRYPRRADAVEDLANILHLGKDPVYRRLRGDTFLSPLEISTLALHFRISLDALIV | -1.51
15 | HMPQPEIEIAAVVPYSAGALLSRIHDDGELLAPVEYRGEGVFVHARVPADIEAAMRRGGMLSPAET | -0.164
16 | HMPQQVFKREDLQKWGLTGQADSRKRREKLGQLLGIGYGNGKQLIHRLNMFQVDRATFEQAIKQINQEEDH | 0.00776
17 | HMPQTNIYPNPAFDKLFVSNLENETNFKIMDLFGRTIINSKTKGEISISELKSGIYIIEINNFRQKFVK | -0.863
18 | HMPQVALAIDEMKRELASPDIVKTLLATTFKGLSEVNMRQAMLDGMIQGHTIADFFKKDVYAIPFGSGYSL | -0.0951
19 | HMPRPFPELTTREHDILALIARGWSNGRIADHLSLSGKTVSNYVSNILGKLQVTARAEAAERAREAGMGQ | -0.401
20 | HMPRRSYLDARKKLLGMLNSPDFNSGDQIPAERELSEVLGISRVTVRKIITELIDEGVLERRGNQGTWLVD | -0.48
21 | HMPRSREVHVEPGMVLEDVTTGFVGAVIRTEKSAGIYVIELEDRRGRRRSFPLGGGFWLDGRPIIALPPLP | 0.281
22 | HMPSLAVYPNPVKDILNIATDKPVHSIRIYNVYGSEVLRAADTNRIDVSHLPAGVYMVSADGKVTRIIK | 0.0765
23 | HMPSLGGLLALLKRNRKPDAMEALDRLISKEDRPETAEALENIREKVRNMQMREAEGLLLALMEP | -0.281

Row | Sequence | soluble fraction (log2)
24 | HMPSLILADEPTGNLDSRNSSEVIALLKNASKRYAQTIIMITHNRSIAQSADRVLQVSDGVLTDMG | 0.0603
25 | HMPSLNDRPDDVLYLFSYFLQSFSHRQVSLPKILKKALIQHDWWGNIRELHSVALRYYIFGDTLNGAYDSL | -0.895
26 | HMPSLSREREAAILEMIERRPSTAEDVASGLGLAVNEVIKLLDGTALRGSVETFQSGEEIYYTRKR | -0.294
27 | HMPSNVKIPDVTGKTVAQARSAIEAAGLKVGKEKDEYSDSAKKDSVIRTNPQAGTQRREGSTVDLIVS | 0.22
28 | HMPSPFYIMDEVEAALDDTNLGRLITLFEELRDSSQLIVITHQKKTMEIADALYGVTMRGDGITTVVSQRL | -2.24
29 | HMPSQEQSDKNAAMAFLPVIVKNALNGKGLKISDDWKAAVNTALAQYPLVNKFFNADSPEVTELVMGL | 0.0187
30 | HMPSQLPLAFARRHGVLLRGFSNGLAQLTVRPEVSTLSLAETRRHLGVPLALEKVTTERFDQLLREAYEA | -0.152
31 | HMPSYYKELQNYSPENPVVKKRKVHPDVVNAIKYLAEITDGNPMLIKAYAQMILAHVFTTMPLIDKSV | 0.22
32 | HMPTEAIVLQQIQIRQSPSGNSKSLQQILPGAKIKITSESSVKGWKQVSLDGGQKGWIPTAAIGL | 0.302
33 | HMPTELVYTVPASAEGLRLDHFLVQHVPHMTRALATELTGAGGVRVNGRRAKKGDRLPSGAEVRLER | 0.286
34 | HMPTFAEKLHEVRKARDFTQDQLAKEMNVSRQTISHWENGRAVPDIDTIKHLSQVLDYNFLV | -0.171
35 | HMPTITIQRGIILSSTTKGFIDELSHSQIKNAIVERLGEHHVMIHESQLDAVIKYAQKKEAVINIYL | -0.0875
36 | HMPTMEQTYIGRTMIAEEDMGKNSKIKVSGIYWTAYNKGRVIKKGEEYKITGIEGNKLIVSSK | 0.179
37 | HMPTNSDRLIGSDGVVSSKIDNLQGTGKVYISGLTWSARTIDGSEAEEGDIVTVEKIEGATLYVTKR | -0.293
38 | HMPTNVYSIIGKEGIVLESIDNLNSTGKVKVNGELWSAISDSNIEKGETIKVLSVNGVKLKVEKVN | -0.0569
39 | HMPTPASGSSGYINATNVNFRTGPATSYKSISKLAKNTAVTILGTSGNWYKVTVGSLGKNGYVFATYVTVS | -0.332
40 | HMPTPLTPREHEIANLIAQGLSNREIADELVISPATAARHVANILAKLGFSSRTQVASWATRHD | -0.237
41 | HMPTSLPGIDIDEKNIVSSTGALSFKKVPKKLAIIGGGYIGLEMGSVWSRLGSSVTVIEYLNFITPG | -0.172
42 | HMPTTLEGIEKYLSSGLIKGIGPHLAGKLVEAFGTRVFEVVEHQPERLRTVGGIGRTRAESITSAWRDQ | -0.141
43 | HMPTTNIRAFRLREADPESVKEALSMVMPKTSIYVDARTKSVLVVGLLDELARAAEIVALIDQP | -1.13
44 | HMPVFSAEQVAKAEADVQKVANKVQEAGADVEKLTTIHNWLLAREKYMPPDLFSTANQIIATAFQKAG | 0.279
45 | HMPVGSIGERLKALRLKAGLTQEEVGQHVHISKQTLYKYENGIVTNIPADKIELLATIYSVTPAYIMGWA | -0.118
46 | HMPVQPMDPSIEHISALTGKQFQAFPGQDHRAHMTAHLNFMSTNIVRNNPAVMGAIQKNILEHISLMAQEQ | -0.0918

Row | Sequence | soluble fraction (log2)
47 | HMPVSLHEQIQQARIRAEQNVEGISLLLQVNPKYYEQIEAGDVIPDQDLLKRISSLFGWNYHEMLHREKSS | -0.487
48 | HMPVSTLLGDNLRRLRTAKGYTQEAVADAARISVAAYRNYETGRAIPKVNTLLAIARALGVSLNDLVTE | -0.00358
49 | HMPVTAQFDFSKVLAGRTLKDGEFSFVLKDKNGTVLQTKTNDASGKVAFDALIYKNNEVGEHKYTVEEVI | 0.294
50 | HMPVVKIPFILTEGPSSITKVIEIDADEILELKDVFQEDDKLWSINQIEMNDGRYVKHSDASLIVRASALR | -0.183
51 | HMPYHSEAWHKVMKSHWLTLSREEAYMHEGRTGASTINIVFQRELGREATQEEIESIYQEKSVLFNSYP | -1.37
52 | HMPYLVNGFILEVQSDDNNPVGTLKRRYAVAKNKQGVILLEGEKSFSSNDQILINELKFYIQSNDLKA | -1.39
53 | HMPYSKIALQISHLLKSHGVPLSNKQIYEKLINDFQLSINYSNLTNNILPRMNSDSSINVEKVTRGYWQY | 0.22
54 | HMQADKYKSYTATDFLKDKDFLRWQLFNGEEDMLFWGRVIEEYPALRSRVEEGIVLYKDNIR | -1.18
55 | HMQADTATITGNGVNMRSGPGTNYQIIDTIPKGTVAEVLSQQDGWVKIYSARISGWVSASYVEIKQT | 0.18
56 | HMQAGNAVEQYPTIGRLEEVTLGRSQPGAPIGERLSTLETVVFKRNFNDDSLFDRTERLKKTILGG | -0.0794
57 | HMQAKQVAIPDVANYSVTDAIKKLQDAGFIVSDEQREEANETVSEGKVSRTSPAAGSIRKEGTEIILYKSL | 0.279
58 | HMQALDETTVSRIRQKAAARNLLLKVLAGQLGVARPTLSNVLARREAPSAALAARIRAFLDSP | 0.159
59 | HMQALTLVGQDAKDAKAALDAVDIQPAKTETDRYIYVLTEQQAQELGRTVDALYGVEGSLTLILEV | -0.207
60 | HMQAQQYYMLLMNKATSALKIEALGANSNKAHQSFGTKTAGGSAVYWGILFNSNGKIYKIVG | -0.15
61 | HMQASIPQSQKDALAKELQALPPHGRNRVLSTFRQQFNISSEKISEFITTPEHLSFIRSKIAEVESDS | -0.529
62 | HMQDENAVTYLLEIKNADANDIASVLKTLKSPDADVVVYKTLNMIIFTGQGSEINGLVKVARQLDRK | -1.3
63 | HMQDGVNLENIEQKLSTLGVGKAQYFLQNVGGNKFNAYMALNTDGVEGYQKGSDTLIEIKNVE | 0.0934
64 | HMQDKIWVVDETQLYPKLIEAMSEGKAVIHDGVAYWAEGSGKTGVIQHLPFKETTVQNVEEAIKLAQ | -0.543
65 | HMQDKLLRKKEVLEMVSITNSTMYRMIGSGQFPRPIRLDNANINSGVRWKLSEINTFIEQRF | -0.893
66 | HMQDLAKRWVEEFGDLLYKYTLPRVSDSGIAKDLVQETFLAAWRNIDNFKGEASEKNWLFTILKNKIIDH | -0.585
67 | HMQDLTAQQQAILSFLKEHPKATRKEISENIPNITEDNIRYNLSQLQELGFVKSMGDSFIRIAI | 0.216
68 | HMQDNDLKNQIENVLRTYPDNVFTVEKIADVLRSHGSAAFKLIVQELASLERDKVAVVTEDGKFQLNPD | 0.339
